Target: T1, NPM-4C (binding peptide 2-NPM fusion protein)
T1 construct: Self-assembling nanoparticle protein expressed in E. coli; also called particle protein component; VLP carrier NPM-4C
Test: covalent binding reaction (4T/4C) with NPM-4C at 22 °C for 24 h, SEC purification, SDS-PAGE

B1: RD012-1 (fHBP V3 domain 1-fHBP V1 domain 2-(G)-fHBP V1 domain 1-fHBP V2 domain 2-(GSG)2-4T-His) (other)
chain: SSGSGSGGGGVAADIGTGLADALTAPLDHKDKGLKSLTLEDSISQNGTLTLSAQGAEKTFKVGDKDNSLNTGKLKNDKISRFDFVQKIEVDGQTITLASGEFQIYKQDHSAVVALQIEKINNPDKIDSLINQRSFLVSGLGGEHTSFDKLPKDVMATYRGTAFGSDDAGGKLTYTIDFAAKQGHGKIEHLKSPELNVDLAVAYIKPDEKHHAVISGSVLYNQDEKGSYSLGIFGEKAQEVAGSAEVETANGIHHIGLAAKQGSSGGGGSGGGGVTADIGTGLADALTAPLDHKDKGLKSLTLEDSISQNGTLTLSAQGAEKTYGNGDSLNTGKLKNDKVSRFDFIRQIEVDGQLITLESGEFQVYKQSHSALTALQTEQEQDPEHSEKMVAKRRFRIGDIAGEHTAFNQLPDGKAEYHGKAFSSDDAGGKLTYTIDFAAKQGHGKIEHLKTPEQNVELAAAELKADEKSHAVILGDTRYGSEEKGTYHLALFGDRAQEIAGSATVKIGEKVHEIGIAGKQGSGGSGAHIVMVDAYKPTKHHHHHH
notes: Expressed in E. coli BL21(DE3), purified by His-trap and SEC; also called RD012-1 fusion protein; MenB antigen
Q: Does B1 bind?
A: binds

B2: RD012-2 (fHBP V3 domain 1-fHBP V1 domain 2-fHBP V1 domain 1T1-fHBP V2 domain 2-(GSG)2-4T-His) (other)
chain: SSGSGSGGGGVAADIGTGLADALTAPLDHKDKGLKSLTLEDSISQNGTLTLSAQGAEKTFKVGDKDNSLNTGKLKNDKISRFDFVQKIEVDGQTITLASGEFQIYKQDHSAVVALQIEKINNPDKIDSLINQRSFLVSGLGGEHTSFDKLPKDVMATYRGTAFGSDDAGGKLTYTIDFAAKQGHGKIEHLKSPELNVDLAVAYIKPDEKHHAVISGSVLYNQDEKGSYSLGIFGEKAQEVAGSAEVETANGIHHIGLAAKQGSGGGGVTADIGTGLADALTAPLDHKDKGLKSLTLEDSISQNGTLTLSAQGAEKTYGNGDSLNTGKLKNDKVSRFDFIRQIEVDGQLITLESGEFQVYKQSHSALTALQTEQEQDPEHSEKMVAKRRFRIGDIAGEHTAFNQLPDGKAEYHGKAFSSDDAGGKLTYTIDFAAKQGHGKIEHLKTPEQNVELAAAELKADEKSHAVILGDTRYGSEEKGTYHLALFGDRAQEIAGSATVKIGEKVHEIGIAGKQGSGGSGAHIVMVDAYKPTKHHHHHH
notes: Expressed in E. coli BL21(DE3), purified by His-trap and SEC; also called RD012-2 fusion protein; MenB antigen
Q: Does B2 bind?
A: binds

Reference: patent EP4803550A1 (Yantai Patronus Biotech Co., Ltd., dated 2026)
